Laboratory results taken from publication PMC7817830, “SUMOylation disassembles the tetrameric pyruvate kinase M2 to block myeloid differentiation of leukemia cells” (Cell Death & Disease, 2021).

Molecular target: the molecule itself
Assay: SEC; cell lysate of 32D BCR-ABL cells on Superdex 200 10/300GL, 50 mM phosphate, 0.15 M NaCl, pH 7.2; fractions by UV absorbance and western blot

B1: Flag-tagged K270R mutant PKM2 expressed in 32D BCR-ABL cells (enzyme)
chain: not shown
notes: pyruvate kinase, M2 isoform (PKM2); also called PKM2^K270R; KR; source: 32D BCR-ABL cells, ectopically expressed, in lysate
**Q.** B1 was tested. Which “stoichiometry N” value did it give?
**A.** 4
